Assay [1] concerns the target T1, AlgWS227A (inactive mutant of the periplasmic soluble domain of AlgW, for crystallization) (Pseudomonas aeruginosa, UniProt Q9HVX1 52-389, S227A).
T1 construct: AlgW of Pseudomonas aeruginosa, residues 52-389 (construct for crystallization), catalytic serine S227 changed to alanine; source: E. coli BL21(DE3), purified (Ni-NTA, Superdex-75 SEC)
T1 sequence: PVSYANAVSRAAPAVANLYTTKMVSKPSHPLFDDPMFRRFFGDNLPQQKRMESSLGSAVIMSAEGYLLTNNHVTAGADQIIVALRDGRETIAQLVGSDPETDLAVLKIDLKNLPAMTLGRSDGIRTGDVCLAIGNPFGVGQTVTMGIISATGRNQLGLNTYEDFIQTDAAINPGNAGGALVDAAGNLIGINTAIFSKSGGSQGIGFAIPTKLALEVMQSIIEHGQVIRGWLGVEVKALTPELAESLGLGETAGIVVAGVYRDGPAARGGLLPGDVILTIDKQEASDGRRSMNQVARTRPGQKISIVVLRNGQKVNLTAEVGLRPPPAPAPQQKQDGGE
Briefly: crystal structure; protein mixed with peptide activator (tripeptide WVF or decapeptide …) prior to crystallization; hanging-drop vapor diffusion at 18°C; molecular replacement. Particulars: both partners purified.

A further assay deals with T2, AlgW-V284A (Pseudomonas aeruginosa, UniProt Q9HVX1 30-389, V284A).
T2 sequence: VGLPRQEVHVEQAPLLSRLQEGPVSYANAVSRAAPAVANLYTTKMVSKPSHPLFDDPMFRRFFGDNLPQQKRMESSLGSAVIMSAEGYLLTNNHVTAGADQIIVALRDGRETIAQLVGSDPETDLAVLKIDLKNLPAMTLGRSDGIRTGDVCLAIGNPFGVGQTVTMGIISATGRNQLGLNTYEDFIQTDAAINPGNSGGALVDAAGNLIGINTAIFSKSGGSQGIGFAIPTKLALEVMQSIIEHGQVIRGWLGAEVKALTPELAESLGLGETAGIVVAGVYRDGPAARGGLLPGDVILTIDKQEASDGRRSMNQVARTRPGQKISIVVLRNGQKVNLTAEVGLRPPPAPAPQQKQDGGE
Briefly: cell-based or functional assay.

A further assay addresses T3, AlgW-R347A (Pseudomonas aeruginosa, UniProt Q9HVX1 30-389, R347A).
T3 sequence: T2 sequence with A255V, R318A
Briefly: cell-based or functional assay.

A further assay concerns the target T4, AlgW-Y212A (Pseudomonas aeruginosa, UniProt Q9HVX1 30-389, Y212A).
T4 sequence: T2 sequence with Y183A, A255V
Briefly: cell-based or functional assay.

In a further assay the target is T5, AlgW-E285A (Pseudomonas aeruginosa, UniProt Q9HVX1 30-389, E285A).
T5 sequence: T2 sequence with A255V, E256A
The experiment in a line: cell-based or functional assay.

A further assay concerns the target T6, AlgW-L282A (Pseudomonas aeruginosa, UniProt Q9HVX1 30-389, L282A).
T6 sequence: T2 sequence with L253A, A255V
Briefly: cell-based or functional assay.

A further assay addresses T7, AlgW-R374A (Pseudomonas aeruginosa, UniProt Q9HVX1 30-389, R374A).
T7 sequence: T2 sequence with A255V, R345A
The experiment in a line: cell-based or functional assay.

Changes are numbered by the printed parent chain.

B1: decapeptide SVRDELRWVF (MucE C-terminal tail) (peptide)
peptide: SVRDELRWVF
notes: C-terminal decapeptide of the periplasmic protein MucE of Pseudomonas aeruginosa; also called C-terminal decapeptide of MucE
As for B1, the binding result in assay [1] is given as “binds”. Further, the “half-maximal activation concentration of the peptide activator (cleavage of Abz-VLAG-pNA)” value in the assay with AlgW-V284A was 3.56 μM; with AlgW-R347A, 1.85 μM; with AlgW-Y212A, 2.12 μM; in the assay with AlgW-E285A, 3.84 μM; with AlgW-L282A it was 2.76 μM. Further, the “maximal cleavage activity of peptide-activated AlgW (Abz-VLAG-pNA)” value with AlgW-V284A is 63.1 μM min^−1; in the assay with AlgW-E285A, 57.5 μM min^−1; with AlgW-L282A it was 13.2 μM min^−1; with AlgW-R374A it was 5.45 μM min^−1.
